Data on 1 substance can be found in publication PMC4839367.

In this test the target is Ad5D24 oncolytic adenovirus (viral particle, capsid) (human adenovirus serotype 5) (UniProt P04133). In words: SPR. A general note: In SPR one partner is held on a chip, and binding of the other changes the refractive index at the surface.
Sequence of UniProt P04133 (P04133 whole entry, looked up): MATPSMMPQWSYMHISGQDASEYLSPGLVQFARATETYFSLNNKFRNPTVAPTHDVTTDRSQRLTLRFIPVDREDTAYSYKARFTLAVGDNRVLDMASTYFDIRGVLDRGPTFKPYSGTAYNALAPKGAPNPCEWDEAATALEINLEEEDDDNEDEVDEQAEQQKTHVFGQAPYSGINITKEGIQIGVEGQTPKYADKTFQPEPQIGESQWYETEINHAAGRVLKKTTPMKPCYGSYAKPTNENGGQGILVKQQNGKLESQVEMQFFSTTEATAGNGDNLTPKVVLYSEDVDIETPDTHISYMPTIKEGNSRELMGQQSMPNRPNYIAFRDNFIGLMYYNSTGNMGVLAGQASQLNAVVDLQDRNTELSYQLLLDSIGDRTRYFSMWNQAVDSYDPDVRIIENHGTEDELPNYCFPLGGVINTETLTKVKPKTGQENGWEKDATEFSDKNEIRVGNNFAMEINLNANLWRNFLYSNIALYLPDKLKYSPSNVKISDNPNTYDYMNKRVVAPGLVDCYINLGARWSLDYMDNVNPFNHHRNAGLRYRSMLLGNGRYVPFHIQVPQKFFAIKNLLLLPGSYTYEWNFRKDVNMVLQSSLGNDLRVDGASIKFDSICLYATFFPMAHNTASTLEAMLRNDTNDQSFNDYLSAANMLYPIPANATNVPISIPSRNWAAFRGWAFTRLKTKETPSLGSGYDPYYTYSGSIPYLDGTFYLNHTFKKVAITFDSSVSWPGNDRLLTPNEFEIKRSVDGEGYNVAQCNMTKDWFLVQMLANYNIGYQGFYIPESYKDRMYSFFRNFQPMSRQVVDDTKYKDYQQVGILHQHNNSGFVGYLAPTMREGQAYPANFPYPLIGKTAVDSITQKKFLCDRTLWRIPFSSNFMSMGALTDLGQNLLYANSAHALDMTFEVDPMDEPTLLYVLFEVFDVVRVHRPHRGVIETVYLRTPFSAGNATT

On to polyK-SIINFEKL (peptide), for which the Kd (in general, the equilibrium constant for the complex coming apart) came to 2880 nM.
